The values below are quoted from earlier work in article PMC7228847.

Usually Kd stands for the free concentration of one partner at which half of the binding sites on the other are occupied at equilibrium, for simple one-to-one binding.

The target of this series is SEMA6A ECD (Mus musculus) (UniProt O35464).
Sequence of SEMA6A ECD (Mus musculus) (O35464 19-649): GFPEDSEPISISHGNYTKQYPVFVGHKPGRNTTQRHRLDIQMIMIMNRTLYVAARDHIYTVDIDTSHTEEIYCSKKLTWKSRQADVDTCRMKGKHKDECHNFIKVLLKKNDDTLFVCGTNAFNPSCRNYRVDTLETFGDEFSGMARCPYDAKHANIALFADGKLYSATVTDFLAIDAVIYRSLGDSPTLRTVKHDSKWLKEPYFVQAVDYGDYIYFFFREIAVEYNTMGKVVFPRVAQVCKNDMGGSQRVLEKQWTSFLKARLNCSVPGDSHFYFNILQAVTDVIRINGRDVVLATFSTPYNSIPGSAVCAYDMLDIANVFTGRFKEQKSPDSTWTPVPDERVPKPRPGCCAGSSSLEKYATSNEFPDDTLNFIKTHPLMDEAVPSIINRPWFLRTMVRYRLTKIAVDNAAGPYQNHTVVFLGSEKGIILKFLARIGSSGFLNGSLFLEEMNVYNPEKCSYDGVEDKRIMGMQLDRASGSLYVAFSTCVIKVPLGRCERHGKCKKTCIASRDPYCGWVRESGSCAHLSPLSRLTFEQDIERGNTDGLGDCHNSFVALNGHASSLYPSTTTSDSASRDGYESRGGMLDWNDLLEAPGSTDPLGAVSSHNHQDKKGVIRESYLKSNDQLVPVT

Sequence of PlexinA2 (P70207 35-1237): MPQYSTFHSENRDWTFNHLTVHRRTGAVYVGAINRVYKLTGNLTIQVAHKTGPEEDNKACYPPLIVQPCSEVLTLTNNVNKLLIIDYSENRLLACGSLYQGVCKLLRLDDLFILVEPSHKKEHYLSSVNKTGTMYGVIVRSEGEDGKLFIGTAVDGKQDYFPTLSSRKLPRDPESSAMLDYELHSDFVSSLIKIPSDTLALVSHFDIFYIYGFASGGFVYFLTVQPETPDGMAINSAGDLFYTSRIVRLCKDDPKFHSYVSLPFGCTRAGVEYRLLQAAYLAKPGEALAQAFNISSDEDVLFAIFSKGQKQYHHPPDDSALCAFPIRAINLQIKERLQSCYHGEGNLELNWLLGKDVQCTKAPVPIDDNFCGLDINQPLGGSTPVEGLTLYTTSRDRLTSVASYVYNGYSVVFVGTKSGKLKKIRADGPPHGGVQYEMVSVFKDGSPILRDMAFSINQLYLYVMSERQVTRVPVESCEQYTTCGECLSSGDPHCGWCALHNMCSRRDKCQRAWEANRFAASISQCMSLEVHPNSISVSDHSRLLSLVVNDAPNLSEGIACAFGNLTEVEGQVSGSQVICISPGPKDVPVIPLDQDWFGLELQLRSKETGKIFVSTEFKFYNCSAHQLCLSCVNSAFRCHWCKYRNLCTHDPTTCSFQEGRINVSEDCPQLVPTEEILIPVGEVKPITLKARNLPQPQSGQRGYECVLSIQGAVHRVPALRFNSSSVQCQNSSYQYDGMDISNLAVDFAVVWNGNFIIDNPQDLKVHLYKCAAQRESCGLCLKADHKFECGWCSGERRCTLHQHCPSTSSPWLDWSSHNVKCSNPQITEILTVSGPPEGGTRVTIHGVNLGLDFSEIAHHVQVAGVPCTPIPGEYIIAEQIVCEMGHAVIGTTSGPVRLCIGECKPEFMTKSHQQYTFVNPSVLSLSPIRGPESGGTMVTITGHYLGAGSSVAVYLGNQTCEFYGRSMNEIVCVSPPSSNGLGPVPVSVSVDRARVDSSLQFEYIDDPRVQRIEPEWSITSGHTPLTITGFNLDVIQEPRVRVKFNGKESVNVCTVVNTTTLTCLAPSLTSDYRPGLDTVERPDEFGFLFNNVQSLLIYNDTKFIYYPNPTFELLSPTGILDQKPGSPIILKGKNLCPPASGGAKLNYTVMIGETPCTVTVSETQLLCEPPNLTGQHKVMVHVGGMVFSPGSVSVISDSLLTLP

For the substance PlexinA2 (from UniProt P70207), the Kd was 2.3 µM.
